In publication PMC7229184, “Cryo-EM structure of the volume-regulated anion channel LRRC8D isoform identifies features important for substrate permeation” (Communications Biology, 2020):

Target: the molecule itself
Experiment: cryo-EM structure; purified HsLRRC8D in 50 mM Tris pH 8.0, 150 mM NaCl, 5 mM dithiothreitol, 0.1% digitonin, 3 mg/mL, vitrified; single-particle analysis, C2 symmetry imposed; homo-hexamer ('dimer of trimers')

B1: human LRRC8D (leucine-rich repeat-containing 8 isoform D) wild-type protein (natural protein)
chain: MFTLAEVASLNDIQPTYRILKPWWDVFMDYLAVVMLMVAIFAGTMQLTKDQVVCLPVLPSPVNSKAHTPPGNAEVTTNIPKMEAATNQDQDGRTTNDISFGTSAVTPDIPLRATYPRTDFALPNQEAKKEKKDPTGRKTNLDFQQYVFINQMCYHLALPWYSKYFPYLALIHTIILMVSSNFWFKYPKTCSKVEHFVSILGKCFESPWTTKALSETACEDSEENKQRITGAQTLPKHVSTSSDEGSPSASTPMINKTGFKFSAEKPVIEVPSMTILDKKDGEQAKALFEKVRKFRAHVEDSDLIYKLYVVQTVIKTAKFIFILCYTANFVNAISFEHVCKPKVEHLIGYEVFECTHNMAYMLKKLLISYISIICVYGFICLYTLFWLFRIPLKEYSFEKVREESSFSDIPDVKNDFAFLLHMVDQYDQLYSKRFGVFLSEVSENKLREISLNHEWTFEKLRQHISRNAQDKQELHLFMLSGVPDAVFDLTDLDVLKLELIPEAKIPAKISQMTNLQELHLCHCPAKVEQTAFSFLRDHLRCLHVKFTDVAEIPAWVYLLKNLRELYLIGNLNSENNKMIGLESLRELRHLKILHVKSNLTKVPSNITDVAPHLTKLVIHNDGTKLLVLNSLKKMMNVAELELQNCELERIPHAIFSLSNLQELDLKSNNIRTIEEIISFQHLKRLTCLKLWHNKIVTIPPSITHVKNLESLYFSNNKLESLPVAVFSLQKLRCLDVSYNNISMIPIEIGLLQNLQHLHITGNKVDILPKQLFKCIKLRTLNLGQNCITSLPEKVGQLSQLTQLELKGNCLDRLPAQLGQCRMLKKSGLVVEDHLFDTLPLEVKEALNQDINIPFANGI
notes: Residues of the TEV site may remain at the C-terminus after cleavage; also called HsLRRC8D; not shown: GFP, C-terminal, cleaved; His8, C-terminal, cleaved
- stoichiometry N: 6
